Source: paper doi:10.1101/2021.04.07.438849 (bioRxiv, 2021)

Molecular target: T1, NTD of the SARS-CoV-2 spike protein (SARS-CoV-2 Wuhan-Hu-1, UniProt P0DTC2)
T1 construct: also called N-terminal domain
Assay: ELISA
Conditions: both partners purified

B1: 8–131 (antibody, V domains shown)
VH: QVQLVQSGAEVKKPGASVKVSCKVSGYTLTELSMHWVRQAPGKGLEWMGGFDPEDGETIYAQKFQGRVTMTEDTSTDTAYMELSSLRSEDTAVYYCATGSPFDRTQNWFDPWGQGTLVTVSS
VL: QSVVTQPPSVSAAPGQKVTISCSGSRSNIGNNYVSWYQQLPGTAPKLLIYDYDKRPSGIPDRFSGSKSGTSATLGITGLQTGDEADYYCGTWDNSLSAGVFGGGTRLTVL
B1: binds.
